Test results reported in publication doi:10.1101/2020.06.08.118984 (bioRxiv, 2020).

Target: the molecule itself
Test: crystal structure

B1: mouse TBPL2 core domain (TBPL2^C) (domain or fragment)
chain: SGIVPQLQNVVSTANLACKLDLRKIALNAKNTEYNPKRFAAVIMRIREPRTTALIFSSGKVVCTGAKSEEESRLAARKYARVVQKLGFPVRFFNFKIQNMVGSCDVKFPIRLEILALTHRQFSSSYEPELFPGLIYKMVKPQVVLLIFASGKVVLTGAKERSEIYEAFENMYPILESFKK
  stoichiometry N: 2
